Measured values taken from paper PMC10786891, “Massively parallel profiling of RNA-targeting CRISPR-Cas13d”.

T1: EsCas13d, nuclease-dead (Eubacterium siraeum, UniProt B0MS50, R295A;H300A;R849A;H854A)
T1 sequence: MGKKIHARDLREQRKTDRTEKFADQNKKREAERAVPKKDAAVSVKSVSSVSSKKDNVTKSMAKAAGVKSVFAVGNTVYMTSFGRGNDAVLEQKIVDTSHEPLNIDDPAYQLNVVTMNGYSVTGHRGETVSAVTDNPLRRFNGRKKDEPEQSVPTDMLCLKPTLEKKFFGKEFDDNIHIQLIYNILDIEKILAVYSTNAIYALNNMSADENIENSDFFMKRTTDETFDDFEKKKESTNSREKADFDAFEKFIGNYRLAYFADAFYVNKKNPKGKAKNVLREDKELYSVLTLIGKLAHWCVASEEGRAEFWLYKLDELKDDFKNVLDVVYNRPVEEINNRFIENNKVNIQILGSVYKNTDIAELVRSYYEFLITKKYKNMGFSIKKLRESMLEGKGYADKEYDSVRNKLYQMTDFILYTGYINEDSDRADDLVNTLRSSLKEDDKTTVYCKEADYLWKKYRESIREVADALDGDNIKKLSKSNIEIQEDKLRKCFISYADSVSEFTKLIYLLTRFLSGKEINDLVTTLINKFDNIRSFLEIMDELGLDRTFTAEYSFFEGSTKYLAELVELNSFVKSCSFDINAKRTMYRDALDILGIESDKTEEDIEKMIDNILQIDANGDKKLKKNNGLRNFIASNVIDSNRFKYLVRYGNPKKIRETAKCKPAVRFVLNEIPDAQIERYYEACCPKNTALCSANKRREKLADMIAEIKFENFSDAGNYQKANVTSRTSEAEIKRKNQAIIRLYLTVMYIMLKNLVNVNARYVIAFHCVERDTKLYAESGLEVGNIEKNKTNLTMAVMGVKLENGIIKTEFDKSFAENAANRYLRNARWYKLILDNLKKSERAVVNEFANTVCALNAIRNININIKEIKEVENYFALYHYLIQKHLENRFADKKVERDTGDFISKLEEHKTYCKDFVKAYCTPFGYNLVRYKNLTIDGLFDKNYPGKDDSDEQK

B1: target 1 U3A,C4A (mixed)
RNA 1: CACCCGUGCAAAAAUGCAGGGGUCUAAAACUGAGCGGAUAACCUCUCUAUGG
RNA 2: GGGAAUGGAUCCACAUCUACGAAUUCGUACCAUAGAGAGGUUAUCCGAACACCGAGAUCGGAAGAGCACACGU
B2: target 1 C7A,A16G (mixed)
RNA 1: CACCCGUGCAAAAAUGCAGGGGUCUAAAACUGAGCGGAUAACCUCUCUAUGG
RNA 2: GGGAAUGGAUCCACAUCUACGAAUUCGUACCAUAGGGAGGUUAUACGCUCACCGAGAUCGGAAGAGCACACGU
B3: target 1 A20C,C22U (mixed)
RNA 1: CACCCGUGCAAAAAUGCAGGGGUCUAAAACUGAGCGGAUAACCUCUCUAUGG
RNA 2: GGGAAUGGAUCCACAUCUACGAAUUCGUAUCCUAGAGAGGUUAUCCGCUCACCGAGAUCGGAAGAGCACACGU
B4: target 1 insU 3' of 15,insG 3' of 10 (mixed)
RNA 1: CACCCGUGCAAAAAUGCAGGGGUCUAAAACUGAGCGGAUAACCUCUCUAUGG
RNA 2: GGGAAUGGAUCCACAUCUACGAAUUCGUACCAUAGAGUAGGUUGAUCCGCUCACCGAGAUCGGAAGAGCACACGU
B5: target 2 MT 5'PFS GAC 3'PFS AGA (mixed)
RNA 1: CACCCGUGCAAAAUUGCAGGGGUCUAAAACCUUCUCCAAAUUGUUUCAUCCU
RNA 2: GGGAAUGGAUCCACAUCUACGAAUUCGACAGGAUGAAACAAUUUGGAGAAGAGAAGAUCGGAAGAGCACACGU
B6: target 2 MT 5'PFS AAG 3'PFS AAU (mixed)
RNA 1: CACCCGUGCAAAAUUGCAGGGGUCUAAAACCUUCUCCAAAUUGUUUCAUCCU
RNA 2: GGGAAUGGAUCCACAUCUACGAAUUCAAGAGGAUGAAACAAUUUGGAGAAGAAUAGAUCGGAAGAGCACACGU
B7: target 2 MT 5'PFS GUG 3'PFS CUG (mixed)
RNA 1: CACCCGUGCAAAAUUGCAGGGGUCUAAAACCUUCUCCAAAUUGUUUCAUCCU
RNA 2: GGGAAUGGAUCCACAUCUACGAAUUCGUGAGGAUGAAACAAUUUGGAGAAGCUGAGAUCGGAAGAGCACACGU
B8: target 2 MT 5'PFS GGU 3'PFS AAG (mixed)
RNA 1: CACCCGUGCAAAAUUGCAGGGGUCUAAAACCUUCUCCAAAUUGUUUCAUCCU
RNA 2: GGGAAUGGAUCCACAUCUACGAAUUCGGUAGGAUGAAACAAUUUGGAGAAGAAGAGAUCGGAAGAGCACACGU
B9: target 2 MT 5'PFS UCU 3'PFS CAG (mixed)
RNA 1: CACCCGUGCAAAAUUGCAGGGGUCUAAAACCUUCUCCAAAUUGUUUCAUCCU
RNA 2: GGGAAUGGAUCCACAUCUACGAAUUCUCUAGGAUGAAACAAUUUGGAGAAGCAGAGAUCGGAAGAGCACACGU
B10: target 2 MT 5'PFS UCA 3'PFS AAC (mixed)
RNA 1: CACCCGUGCAAAAUUGCAGGGGUCUAAAACCUUCUCCAAAUUGUUUCAUCCU
RNA 2: GGGAAUGGAUCCACAUCUACGAAUUCUCAAGGAUGAAACAAUUUGGAGAAGAACAGAUCGGAAGAGCACACGU
B11: target 2 MT 5'PFS UCA 3'PFS AAA (mixed)
RNA 1: CACCCGUGCAAAAUUGCAGGGGUCUAAAACCUUCUCCAAAUUGUUUCAUCCU
RNA 2: GGGAAUGGAUCCACAUCUACGAAUUCUCAAGGAUGAAACAAUUUGGAGAAGAAAAGAUCGGAAGAGCACACGU
B12: target 2 MT 5'PFS GUG 3'PFS CUU (mixed)
RNA 1: CACCCGUGCAAAAUUGCAGGGGUCUAAAACCUUCUCCAAAUUGUUUCAUCCU
RNA 2: GGGAAUGGAUCCACAUCUACGAAUUCGUGAGGAUGAAACAAUUUGGAGAAGCUUAGAUCGGAAGAGCACACGU
B13: target 2 MT 5'PFS UCU 3'PFS CAA (mixed)
RNA 1: CACCCGUGCAAAAUUGCAGGGGUCUAAAACCUUCUCCAAAUUGUUUCAUCCU
RNA 2: GGGAAUGGAUCCACAUCUACGAAUUCUCUAGGAUGAAACAAUUUGGAGAAGCAAAGAUCGGAAGAGCACACGU
B14: target 2 MT 5'PFS UCA 3'PFS AAU (mixed)
RNA 1: CACCCGUGCAAAAUUGCAGGGGUCUAAAACCUUCUCCAAAUUGUUUCAUCCU
RNA 2: GGGAAUGGAUCCACAUCUACGAAUUCUCAAGGAUGAAACAAUUUGGAGAAGAAUAGAUCGGAAGAGCACACGU
B15: target 2 MT 5'PFS GUG 3'PFS CUA (mixed)
RNA 1: CACCCGUGCAAAAUUGCAGGGGUCUAAAACCUUCUCCAAAUUGUUUCAUCCU
RNA 2: GGGAAUGGAUCCACAUCUACGAAUUCGUGAGGAUGAAACAAUUUGGAGAAGCUAAGAUCGGAAGAGCACACGU
B16: target 2 MT 5'PFS GGU 3'PFS AAC (mixed)
RNA 1: CACCCGUGCAAAAUUGCAGGGGUCUAAAACCUUCUCCAAAUUGUUUCAUCCU
RNA 2: GGGAAUGGAUCCACAUCUACGAAUUCGGUAGGAUGAAACAAUUUGGAGAAGAACAGAUCGGAAGAGCACACGU
B17: target 2 MT 5'PFS GGU 3'PFS AAA (mixed)
RNA 1: CACCCGUGCAAAAUUGCAGGGGUCUAAAACCUUCUCCAAAUUGUUUCAUCCU
RNA 2: GGGAAUGGAUCCACAUCUACGAAUUCGGUAGGAUGAAACAAUUUGGAGAAGAAAAGAUCGGAAGAGCACACGU
B18: target 2 MT 5'PFS UCA 3'PFS AAG (mixed)
RNA 1: CACCCGUGCAAAAUUGCAGGGGUCUAAAACCUUCUCCAAAUUGUUUCAUCCU
RNA 2: GGGAAUGGAUCCACAUCUACGAAUUCUCAAGGAUGAAACAAUUUGGAGAAGAAGAGAUCGGAAGAGCACACGU
B19: target 2 MT 5'PFS UGG 3'PFS CCG (mixed)
RNA 1: CACCCGUGCAAAAUUGCAGGGGUCUAAAACCUUCUCCAAAUUGUUUCAUCCU
RNA 2: GGGAAUGGAUCCACAUCUACGAAUUCUGGAGGAUGAAACAAUUUGGAGAAGCCGAGAUCGGAAGAGCACACGU
B20: target 2 MT 5'PFS GAC 3'PFS AGC (mixed)
RNA 1: CACCCGUGCAAAAUUGCAGGGGUCUAAAACCUUCUCCAAAUUGUUUCAUCCU
RNA 2: GGGAAUGGAUCCACAUCUACGAAUUCGACAGGAUGAAACAAUUUGGAGAAGAGCAGAUCGGAAGAGCACACGU
B21: target 2 MT 5'PFS GGU 3'PFS AAU (mixed)
RNA 1: CACCCGUGCAAAAUUGCAGGGGUCUAAAACCUUCUCCAAAUUGUUUCAUCCU
RNA 2: GGGAAUGGAUCCACAUCUACGAAUUCGGUAGGAUGAAACAAUUUGGAGAAGAAUAGAUCGGAAGAGCACACGU
B22: target 2 MT 5'PFS GAC 3'PFS AGU (mixed)
RNA 1: CACCCGUGCAAAAUUGCAGGGGUCUAAAACCUUCUCCAAAUUGUUUCAUCCU
RNA 2: GGGAAUGGAUCCACAUCUACGAAUUCGACAGGAUGAAACAAUUUGGAGAAGAGUAGAUCGGAAGAGCACACGU
B23: target 2 MT 5'PFS AGG 3'PFS AAC (mixed)
RNA 1: CACCCGUGCAAAAUUGCAGGGGUCUAAAACCUUCUCCAAAUUGUUUCAUCCU
RNA 2: GGGAAUGGAUCCACAUCUACGAAUUCAGGAGGAUGAAACAAUUUGGAGAAGAACAGAUCGGAAGAGCACACGU
B24: target 2 MT 5'PFS GUG 3'PFS CUC (mixed)
RNA 1: CACCCGUGCAAAAUUGCAGGGGUCUAAAACCUUCUCCAAAUUGUUUCAUCCU
RNA 2: GGGAAUGGAUCCACAUCUACGAAUUCGUGAGGAUGAAACAAUUUGGAGAAGCUCAGAUCGGAAGAGCACACGU

target: T1, EsCas13d, nuclease-dead; experiment: crRNA (strand 1, pre-loaded); Mg2+; 40 mM Tris-HCl pH 7.5, 150 mM NaCl, 6 mM MgCl2, 1 mM DTT, 0.1% Tween-20, 0.2 mg/ml BSA; 25 C; 10 min per concentration, then washed; conditions: tags: His6-TwinStrep-SUMO cleaved; N-terminal SNAP kept (SNAP-Surface 488); label: 3' end held by stalled T7 RNA polymerase

Binder | Kd [nM]
B1 | 8.5 ± 0.9
B2 | 30 ± 1.9
B3 | 49 ± 6
B4 | 21.6 ± 2.9
B5 | 16 ± 6
B6 | 3.1 ± 0.5
B7 | 10.1 ± 0.7
B8 | 12.7 ± 1.2
B9 | 7.6 ± 1.1
B10 | 7.5 ± 1.1
B11 | 4.2 ± 0.9
B12 | 12.8 ± 1
B13 | 10.5 ± 2.1
B14 | 5.2 ± 0.7
B15 | 8.5 ± 0.7
B16 | 13.4 ± 1.4
B17 | 7.1 ± 1
B18 | 6.7 ± 1
B19 | 8.6 ± 0.8
B20 | 9.3 ± 1.3
B21 | 12.4 ± 2.2
B22 | ~43
B23 | 8.5 ± 1.7
B24 | 21.4 ± 2
